Test system: RIG-I (recombinant)
Experiment: filter binding
Settings: 25 mM Tris-HCl pH 7.5, 150 mM NaCl, 1.5 mM MgCl2, room temperature, filter binding with 600 nM BSA, 30 min, pull-down in lysate with 0.5% Triton X-100

polyU/UC RNA 2'FdU
Kd (2'-fluoro-deoxyuridine substituted for U): 29 nM

polyU/UC RNA canonical
Kd: 186 nM

polyU/UC RNA m6A
Kd (N6-methyladenosine substituted for A): > 1070 nM

polyU/UC RNA pseudouridine
Kd (pseudouridine substituted for U): 255 nM

Reference: article PMC5030355
